In the Human Domainome abundance scans (Beltran et al. 2025):

B1: Retinoic acid receptor RXR-alpha, residues 132 to 208; numbered along this chain, P19793 (parent)
chain: KHICAICGDRSSGKHYGVYSCEGCKGFFKRTVRKDLTYTCRDNKDCLIDKRQRNRCQYCRYQKCLAMGMKREAVQEE

Variants of: B1
Assay: abundance fitness (aPCA) (normalised: wild type 0, dead -1); higher = more abundant; growth selection in yeast, the domain comes from the species named
Conditions: Homo sapiens

Abundance fitness of substitutions, site by site:
L65: T 0.057, S -0.061, K -0.008, Q 0.021, V 0.033, N 0.11, R -0.111, W -0.108, Y 0.015, M -0.058
Q75: A -0.049
E72: V 0.16, D 0.047, A -0.022, L -0.046, T -0.026, P -0.12, I 0.046, C -0.047, M -0.07, H -0.109, F -0.19, R -0.017, S 0.034, G -0.096, Q -0.042, W 0.041
A66: Y -0.036, I -0.032, E 0.033, S 0.015, L 0.047, G 0.017, P -0.713, W -0.063, M -0.042, D 0.031, Q -0.031, F 0.015, T 0.002, C -0.099, N -0.005, H 0.045, R -0.019, V 0.029, K 0.045
M69: L -0.036, P -0.856, H -0.548, S -0.262, F 0.051, E -0.322, R -0.875, W -0.007, C -0.09, D -0.733, I -0.275, V -0.319, G -0.159, A -0.069, Q -0.157, K -0.482, T -0.343
M67: Q -0.017, Y -0.008, E -0.016, C -0.019, I 0.007, G -0.023, P -0.621, K 0.007, V -0.009, W -0.055, R 0, A 0.009, S 0.019, N -0.006, F -0.017, L 0.018
R71: L 0.033, T 0.019, I 0.028, H -0.007, E 0.006, W -0.056, A 0.033, C -0.001, K 0.043, N 0.015, Q 0.001, Y 0.006, V 0.021, G -0.004, F 0.01, D 0.065, M -0.01, P 0.005, S 0.003
A73: I 0.05, P 0.011, S 0.004, V -0.019, W -0.007, Q -0.04, M 0.044, R -0.037, C 0.04, K -0.081, L -0.027, Y -0.056, F -0.01, N 0.015, E -0.011, G -0.008, T 0.009, D 0.048
V74: H -0.021, K 0.056, I -0.017, G -0.028, P -0.002, A -0.045, L -0.046, E -0.018, S -0.059, R -0.03, D -0.039, M -0.025, N -0.064, W -0.074, Q -0.007, C 0.017, T 0, Y -0.039
K70: V 0.04, N 0.061, P 0.021, M -0.034, I 0.035, F 0.043, R -0.012, Y 0.037, E -0.074, D 0.006, S 0.002, Q -0.01, A -0.014, W -0.005, H 0.037, L 0.01
G68: R -0.238, S -0.108, F -0.091, M -0.26, Q -0.054, T -0.357, E -0.112, V -0.645, L -0.362, Y -0.227, C -0.136, N -0.02, H -0.103, D -0.06, I -0.544, W -0.302, K -0.079
